In paper doi:10.1101/2023.11.29.569220, “Spartin-mediated lipid transfer facilitates lipid droplet turnover” (bioRxiv, 2023):

Key:
Assay in all cases: native gel or EMSA; blue native PAGE, 4%-16% Bis-Tris gel, 4C, 1-2 ug protein purified in buffer A (50 mM HEPES, 500 mM NaCl, pH 8.0, 1 mM TCEP, 10% glycerol); migration according to MW against NativeMark standards
[1] = target: CeSpartin (C. elegans spartin) (C. elegans)
[2] = target: CtSpartinL (spartin-like protein from Chaetomium thermophilum) (Chaetomium thermophilum)
[3] = target: the molecule itself

“CeSpartin (C. elegans spartin) (natural protein)” gave a stoichiometry N [1] of 3.

“CtSpartinL (spartin-like protein from Chaetomium thermophilum) (natural protein)” was tested, and the stoichiometry N [2] was 3.

B1: HsSpartin (human spartin, SPG20) (natural protein, UniProt Q8N0X7 1-666, looked up)
chain: MEQEPQNGEPAEIKIIREAYKKAFLFVNKGLNTDELGQKEEAKNYYKQGIGHLLRGISISSKESEHTGPGWESARQMQQKMKETLQNVRTRLEILEKGLATSLQNDLQEVPKLYPEFPPKDMCEKLPEPQSFSSAPQHAEVNGNTSTPSAGAVAAPASLSLPSQSCPAEAPPAYTPQAAEGHYTVSYGTDSGEFSSVGEEFYRNHSQPPPLETLGLDADELILIPNGVQIFFVNPAGEVSAPSYPGYLRIVRFLDNSLDTVLNRPPGFLQVCDWLYPLVPDRSPVLKCTAGAYMFPDTMLQAAGCFVGVVLSSELPEDDRELFEDLLRQMSDLRLQANWNRAEEENEFQIPGRTRPSSDQLKEASGTDVKQLDQGNKDVRHKGKRGKRAKDTSSEEVNLSHIVPCEPVPEEKPKELPEWSEKVAHNILSGASWVSWGLVKGAEITGKAIQKGASKLRERIQPEEKPVEVSPAVTKGLYIAKQATGGAAKVSQFLVDGVCTVANCVGKELAPHVKKHGSKLVPESLKKDKDGKSPLDGAMVVAASSVQGFSTVWQGLECAAKCIVNNVSAETVQTVRYKYGYNAGEATHHAVDSAVNVGVTAYNINNIGIKAMVKKTATQTGHTLLEDYQIVDNSQRENQEGAANVNVRGEKDEQTKEVKEAKKKDK
notes: Spartin (SPG20), human, Uniprot Q8N0X7, full-length; gene synthesized and cloned into pCMV10 with an N-terminal 3xFLAG tag; The Expi293 methods describe only elution with 3xFLAG peptide and no protease step; source: Expi293 cells, purified (anti-FLAG resin); not shown: 3xFLAG, N-terminal, cleaved
With B1 the “stoichiometry N” value [3] was ~3.
